This is an account of results in patent publication US7960513B2, “Antibody against a human ADAM protease” (Monash University, priority 2004, dated 2011).

The target of the assay is T1, EphA3/ephrin-A5 complex (Homo sapiens, UniProt P29320+P52803).
T1 construct: Fc fusion proteins of the ephrin-A5 and EphA3 extracellular domains fused to the hinge and Fc region of human IgG1 were produced as described; expressed in transfected cells; host or cells: EphA3/HEK293 cells; ephrin-A5-Fc added as soluble pre-clustered protein
T1 sequence (P29320 21-983): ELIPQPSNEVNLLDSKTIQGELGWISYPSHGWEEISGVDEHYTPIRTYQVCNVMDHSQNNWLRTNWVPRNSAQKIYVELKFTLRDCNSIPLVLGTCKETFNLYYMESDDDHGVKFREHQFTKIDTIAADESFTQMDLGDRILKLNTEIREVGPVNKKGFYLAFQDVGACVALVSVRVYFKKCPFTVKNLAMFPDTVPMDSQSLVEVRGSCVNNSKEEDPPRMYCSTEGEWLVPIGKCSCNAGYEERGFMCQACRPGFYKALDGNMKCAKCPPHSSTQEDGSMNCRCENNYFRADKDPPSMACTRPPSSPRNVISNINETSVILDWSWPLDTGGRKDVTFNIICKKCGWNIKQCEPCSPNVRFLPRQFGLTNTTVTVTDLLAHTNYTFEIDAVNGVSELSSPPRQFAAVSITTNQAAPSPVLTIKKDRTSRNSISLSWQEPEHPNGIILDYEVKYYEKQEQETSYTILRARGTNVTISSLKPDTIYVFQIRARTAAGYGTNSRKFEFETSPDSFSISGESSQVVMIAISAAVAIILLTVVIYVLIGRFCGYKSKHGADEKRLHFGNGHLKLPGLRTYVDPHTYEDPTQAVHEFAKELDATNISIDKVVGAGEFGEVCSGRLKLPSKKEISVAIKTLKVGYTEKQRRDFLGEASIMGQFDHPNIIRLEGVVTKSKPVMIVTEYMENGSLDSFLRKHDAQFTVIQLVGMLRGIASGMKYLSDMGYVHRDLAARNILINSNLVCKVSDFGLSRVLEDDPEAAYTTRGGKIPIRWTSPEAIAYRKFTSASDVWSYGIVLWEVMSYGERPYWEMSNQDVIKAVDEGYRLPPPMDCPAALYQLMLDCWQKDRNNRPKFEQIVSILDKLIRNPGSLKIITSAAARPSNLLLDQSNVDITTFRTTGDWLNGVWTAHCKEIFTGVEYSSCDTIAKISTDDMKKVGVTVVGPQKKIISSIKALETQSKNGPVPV
T1 sequence (P52803 21-203 limits assumed): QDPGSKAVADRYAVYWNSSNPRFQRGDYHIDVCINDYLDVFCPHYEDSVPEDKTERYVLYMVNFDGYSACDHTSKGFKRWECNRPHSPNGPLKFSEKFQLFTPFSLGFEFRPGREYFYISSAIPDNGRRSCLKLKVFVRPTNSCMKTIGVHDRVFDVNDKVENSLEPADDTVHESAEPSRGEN
The assay is described as follows: Co-immunoprecipitation from transfected cells treated with pre-clustered ephrin-A5-Fc. Format: cell-based. To be noted: EphA3/293 cells, pre-clustered ephrin-A5-Fc 10 min. As for the experimental part:
FIG. 4. Mutation of acidic residues in the ADAM10 Cys-rich domain affects binding to EphA3/ephrin-A5 and cleavage of ephrin-A5. • A. In vitro binding of mutant ADAM10D+C to EphA3/ephrin-A5. ADAM10D+C[EEE-A] containing Alanine substitutions of Glu573, Glu578, Glu579 (lanes 1-4) or ADAM10D+C[RDD-A] (Ala substitutions of Arg525, Asp526, Asp527, lanes 5-8) were incubated alone (lanes 1, 5), or together with EphA3-Fc (lanes 2, 6), ephrin-A5-Fc (lanes 3, 7), or EphA3-Fc and ephrin-A5 (lanes 4, 8). Complexed proteins were extracted with Protein-A-Sepharose beads and analysed as in FIG. 2. • B. Binding of wild-type and mutant ADAM10ΔMP to EphA3 in cells. EphA3/293 cells were transfected with HA-ADAM10ΔMP or HA-ADAM10ΔMP [EEE-A]. Parental and transfected cells were treated for 10 min with or without pre-clustered ephrin-A5-Fc and lysed. Anti-HA and anti-EphA3 immunoprecipitates, and total cell lysates were analysed by Western blotting with indicated antibodies. • C. Ephrin-A5-Fc cleavage in cells expressing wt and 3A mutant ADAM10. EphA3/293 cells were transfected with full length, wild-type (wt) ADAM10, dominant-negative ADAM10ΔMP, or ADAM10 bearing alanine (3A) or 3 lysine (3K) substitutions of Glu573, 578, 579. Following exposure to clustered (+) or non-clustered ? ephrin-A5 Fc, cleaved ephrin was recovered and analysed by Western Blot as described in FIG. 1c. […]

B1: ADAM10Δpro: cell-surface ADAM10Δpro incorporating the EEE-A amino acid substitutions (protein)
chain: SGQPICGNGMVEQGEECDCGYSDQCKDDCCFDANQPEGKKCKLKPGKQCSPSQGPCCTAQCAFKSKSEKCRDDSDCAKEGICNGFTALCPASDPKPNFTDCNRHTQVCINGQCAGSICAKYDLAACTCASSDGKDDKELCHVCCMKKMAPSTCASTGSLQWSKQFSGRTITLQPGSPCNDFRGYCDVFMRCRLVDADGPLARLKKAIFSPQLYENIAEWIVAHWWAVLLMGIALIMLMAGFIKICSVHTPSSNPKLPPPKPLPGTLKRRRPPQPIQQPPRQRPRESYQMGHMRR
modifications: left off: small tags and cut ends
notes: cell-surface ADAM10Δpro incorporating the EEE-A amino acid substitutions
As to B1, the “interaction with the EphA3/ephrin-A5 complex in cells” value is “significantly inhibited”.
